To fix the notation:
B1: wild-type lamin A/C fragment (residues 1–300) (domain or fragment, human, UniProt P02545 1-300, looked up)
chain: METPSQRRATRSGAQASSTPLSPTRITRLQEKEDLQELNDRLAVYIDRVRSLETENAGLRLRITESEEVVSREVSGIKAAYEAELGDARKTLDSVAKERARLQLELSKVREEFKELKARNTKKEGDLIAAQARLKDLEALLNSKEAALSTALSEKRTLEGELHDLRGQVAKLEAALGEAKKQLQDEMLRRVDAENRLQTMKEELDFQKNIYSEELRETKRRHETRLVEIDNGKQREFESRLADALQELRAQHEDQVEQYKKELEKTYSAKLDNARQSAERNSNLVGAAHEELQQSRIRID
notes: human lamin A/C, residues 1-300 (head, coil 1a, L1, coil 1b, L12 and part of coil 2); Dimer by SEC-MALS; The vector pProEx-HTa is named for the S143F construct; also called lamin 300 fragment; wild-type lamin 300 fragment; source: E. coli, purified (cobalt-Talon, TEV cleavage, HiTrap Q, SEC)
B2: S143F mutant lamin A/C fragment (residues 1–300) (domain or fragment, human, UniProt P02545 1-300, looked up)
chain: METPSQRRATRSGAQASSTPLSPTRITRLQEKEDLQELNDRLAVYIDRVRSLETENAGLRLRITESEEVVSREVSGIKAAYEAELGDARKTLDSVAKERARLQLELSKVREEFKELKARNTKKEGDLIAAQARLKDLEALLNFKEAALSTALSEKRTLEGELHDLRGQVAKLEAALGEAKKQLQDEMLRRVDAENRLQTMKEELDFQKNIYSEELRETKRRHETRLVEIDNGKQREFESRLADALQELRAQHEDQVEQYKKELEKTYSAKLDNARQSAERNSNLVGAAHEELQQSRIRID
notes: human lamin A/C, residues 1-300, with the disease mutation S143F (a genetic mutation found in patients); Vector pProEx-HTa; Ordered in the crystal: residues 29-229 and 31-229; also called S143F mutant lamin 300 fragment; Lamin S143F (residues 1–300); source: E. coli BL21 (DE3) or B834 (DE3), purified (cobalt-Talon, TEV cleavage, HiTrap Q, SEC)

Series [1] deals with the molecule itself. The series can be described thus: SEC-MALS; 2 mg/mL sample on Superdex 200 Increase 10/300 GL, 20 mM Tris-HCl (pH 7.5), 150 mM NaCl.
Series [2] deals with B1. Nature of the series: pull-down; hexaHis-tagged lamin 250–400 immobilised on Ni-NTA resin as bait, tagless lamin 300 fragments as prey; 20 mM Tris-HCl (pH 8.0), 50 mM or 150 mM NaCl, 20 mM imidazole in the wash, room temperature, 30 min; SDS-PAGE. The settings on record: both partners purified.
For series [3], the target named is B2. The description is as above. Conditions: both partners purified.

Experimental findings from paper PMC8956589, “Crystal structure of progeria mutant S143F lamin A/C reveals increased hydrophobicity driving nuclear deformation” (Communications Biology, 2022) are described below.

What is called stoichiometry N is the number of molecules, sites or subunits per partner or assembly. Regarding B1, in series [1], the “stoichiometry N” value worked out at 2.

Consider B2, for which the “stoichiometry N” value in series [1] worked out at 2.

B3: hexaHis-tagged lamin fragment (residues 250–400) (domain or fragment, human, UniProt P02545 250-400, looked up)
chain: AQHEDQVEQYKKELEKTYSAKLDNARQSAERNSNLVGAAHEELQQSRIRIDSLSAQLSQLQKQLAAKEAKLRDLEDSLARERDTSRRLLAEKEREMAEMRARMQQQLDEYQELLDIKLALDMEIHAYRKLLEGEEERLRLSPSPTSQRSRG
notes: human lamin A/C, residues 250-400 (C-terminal fragment of coil 2); also called His-lamin 2 C fragment; lamin 2 C fragment; source: E. coli, purified
For the molecule B3, the binding result in series [2] and in series [3] was “binds” in each case.
